Reference: the Human Domainome abundance scans (Beltran et al. 2025)
± gives the uncertainty stated by the source.

B1: RAS guanyl-releasing protein 1, residues 539 to 593; numbered along this chain, O95267 (parent)
chain: GFPHNFQETTYLKPTFCDNCAGFLWGVIKQGYRCKDCGMNCHKQCKDLVVFECKK
B2: Zinc finger homeobox protein 4, residues 2562 to 2617; numbered along this chain, Q86UP3 (parent)
chain: RLRTTITPEQLEILYEKYLLDSNPTRKMLDHIAREVGLKKRVVQVWFQNTRARERK

Variants of: B1
Experiment: abundance fitness (aPCA) (normalised: wild type 0, dead -1); higher = more abundant; growth selection in yeast, the domain comes from the species named
Conditions: Homo sapiens

Variant	abundance fitness
GFPHPFQETTYLKPTFCDNCAGFLWGVIKQGYRCKDCGMNCHKQCKDLVVFECKK	-0.403 ± 0.12
GFPHMFQETTYLKPTFCDNCAGFLWGVIKQGYRCKDCGMNCHKQCKDLVVFECKK	-0.018 ± 0.089
GFPHNFQETTYLKPTFCDNCAGFIWGVIKQGYRCKDCGMNCHKQCKDLVVFECKK	-0.049 ± 0.077
GFPHNFQETTYLKPTFCDNCAGFVWGVIKQGYRCKDCGMNCHKQCKDLVVFECKK	-0.241 ± 0.098
GFPHNFQETTYLKPTFLDNCAGFLWGVIKQGYRCKDCGMNCHKQCKDLVVFECKK	-1.26 ± 0.27
GFPHNFQETTYLKPTFCDNCAGFLWGVIKQGYRCKDCGMDCHKQCKDLVVFECKK	-0.023 ± 0.053
GFPHNFQETTYLKPTFCDNCAGFLWGVIKQGYRCKDCGMNCHKQCKLLVVFECKK	-0.141 ± 0.063
GFPHNFQETTYLKPTFCDNCAGFLWGVIKQGYRCKDCGMNCHFQCKDLVVFECKK	-0.24 ± 0.21
GFPHNFQETTYLKPTFCDNCAGFLWGVIKQGYRCKDAGMNCHKQCKDLVVFECKK	-1.25 ± 0.4
GFPHNFQETTYLKPTFCDNCAGFLWGVIKQGYRCKDTGMNCHKQCKDLVVFECKK	-0.427 ± 0.1
GFPHNFQETTYLKPTFCDNCAGFLWGVIKQGYRCKDFGMNCHKQCKDLVVFECKK	-0.924 ± 0.18
GFPHNFQETTYLKPTFCDNCAGDLWGVIKQGYRCKDCGMNCHKQCKDLVVFECKK	-0.423 ± 0.11
GFPHNFQETTYLKPTFCDNCAGILWGVIKQGYRCKDCGMNCHKQCKDLVVFECKK	-0.032 ± 0.14
GFPHNFQETTYLKPTFCDNCAGFLWGVIKQGYRCKDCGMNCHKQCFDLVVFECKK	-0.228 ± 0.14
GFPHNFQETTYLKPTFCDNCAGFLWGVIKQGYRCKDCGMNCHKQCRDLVVFECKK	-0.01 ± 0.066
GFPHNFQETTYLKPTFCDNCAGFLWGVIKQGYRCKDCGMNCHKQCSDLVVFECKK	-0.078 ± 0.069
GFPHNFQETTYLKPTFCDNCAGFLWGVIKQGYRCKDCGMNCHKQCNDLVVFECKK	-0.337 ± 0.17
GFPHNFQETTYLKPTFCDNCAGFLWGVIKQGYRCKDCGMNCHKQCKDLVVFECCK	-0.157 ± 0.046
GFPHNFQETTYLKPTFCDNCAGFLWGVIKQGYRCKDCGMNCHKQCKDLVVFECAK	-0.233 ± 0.1
GFPHNFQETTYLAPTFCDNCAGFLWGVIKQGYRCKDCGMNCHKQCKDLVVFECKK	-0.223 ± 0.078
GFPHNFQETTYLRPTFCDNCAGFLWGVIKQGYRCKDCGMNCHKQCKDLVVFECKK	-0.231 ± 0.086

Variant	abundance fitness
GFPHNFQETTYLIPTFCDNCAGFLWGVIKQGYRCKDCGMNCHKQCKDLVVFECKK	-0.257 ± 0.17
GMPHNFQETTYLKPTFCDNCAGFLWGVIKQGYRCKDCGMNCHKQCKDLVVFECKK	-0.051 ± 0.094
GAPHNFQETTYLKPTFCDNCAGFLWGVIKQGYRCKDCGMNCHKQCKDLVVFECKK	-0.261 ± 0.095
GCPHNFQETTYLKPTFCDNCAGFLWGVIKQGYRCKDCGMNCHKQCKDLVVFECKK	-0.214 ± 0.11
GNPHNFQETTYLKPTFCDNCAGFLWGVIKQGYRCKDCGMNCHKQCKDLVVFECKK	0.214 ± 0.093
GFPHNFQETTYLKPTFCDNCAGFLWGVIKQGYRCKDCGMNCYKQCKDLVVFECKK	-0.892 ± 0.38
GFPHNFQETTYLKPTFCDNCAGFLWGVIKQGYRCKDCGMNCCKQCKDLVVFECKK	-0.416 ± 0.13
GFPHNFQETTYLKPTFCDNCAGFLWGVIKQGYRCKDCGMNCGKQCKDLVVFECKK	-0.249 ± 0.082
GFPHNFQETTYLKPTFCDNCAGFLWGVIKQGYRDKDCGMNCHKQCKDLVVFECKK	-0.269 ± 0.12
GFPHNFQETTYLKPTFCDNCAGFLWGVIKQGYRHKDCGMNCHKQCKDLVVFECKK	-0.809 ± 0.38
GFPHNFQETTKLKPTFCDNCAGFLWGVIKQGYRCKDCGMNCHKQCKDLVVFECKK	-0.036 ± 0.12
GFPHNFRETTYLKPTFCDNCAGFLWGVIKQGYRCKDCGMNCHKQCKDLVVFECKK	-0.123 ± 0.068
GFPHNFSETTYLKPTFCDNCAGFLWGVIKQGYRCKDCGMNCHKQCKDLVVFECKK	-0.127 ± 0.075
GFPHNFQETTYLKPTFCDNCAGFLWGVIKQGYRCKSCGMNCHKQCKDLVVFECKK	-0.028 ± 0.075
GFPHNFQETTYLKPTFCDNCAGFLWGVIKQGYRCKNCGMNCHKQCKDLVVFECKK	-0.006 ± 0.12
GFPHNFQETTYLKPTFCDNCAGFLWGVIKQGYRCKRCGMNCHKQCKDLVVFECKK	-0.055 ± 0.075
GFPHNFQETTYLKPTFCDNCAGFLWGVDKQGYRCKDCGMNCHKQCKDLVVFECKK	-0.429 ± 0.2
GFPHNFQETTYLKPTFCDNCAGFLWGVIKQGYRCKDCGMNCHKQCKDFVVFECKK	0.018 ± 0.11
GFPHNFQETTYLKPTFCDNCAGFLWGVIKQGYRCKDCGMNYHKQCKDLVVFECKK	0.02 ± 0.1
GFPHNFQETTYLKPTFCDNCAGFLWGVIKQGYRCKDCGMNTHKQCKDLVVFECKK	-0.035 ± 0.092
GFPHNFQETTYLKPTFCDNCAGFLWNVIKQGYRCKDCGMNCHKQCKDLVVFECKK	-0.562 ± 0.16

Variant	abundance fitness
GFPHNFQETTYLKPTFCDNCAGFLWCVIKQGYRCKDCGMNCHKQCKDLVVFECKK	-0.563 ± 0.059
GFPHNFQETTYLKPTFCDNCAGFLWGVIKQGYRCKDCGMNCHKQCKDLVVFECKG	-0.084 ± 0.14
GFPHNFQETTYLKPTFCDNCAGFLWGVIKQGYRCKDCGMNCHKQCKDLVVFECKR	-0.435 ± 0.37
GFPHNFQETTYLKPTFCDNCAGFLWGVIKQGYRCKDCGMNCHKQCKDLVKFECKK	-0.383 ± 0.15
GFPHNFQETTYLKPTFCDNCAGFLWGVIKQGYRCKDCGMNCHKQCKDLVCFECKK	0.042 ± 0.06
GFPHNFQETTYLKPTFCWNCAGFLWGVIKQGYRCKDCGMNCHKQCKDLVVFECKK	0.123 ± 0.11
GFPHNFQETTYLKPTFCHNCAGFLWGVIKQGYRCKDCGMNCHKQCKDLVVFECKK	-0.383 ± 0.27
GFPHNFQHTTYLKPTFCDNCAGFLWGVIKQGYRCKDCGMNCHKQCKDLVVFECKK	-0.765 ± 0.098
GFPHNFQPTTYLKPTFCDNCAGFLWGVIKQGYRCKDCGMNCHKQCKDLVVFECKK	-0.303 ± 0.084
GFPHNFQETNYLKPTFCDNCAGFLWGVIKQGYRCKDCGMNCHKQCKDLVVFECKK	-0.311 ± 0.13
GFPHNFQETIYLKPTFCDNCAGFLWGVIKQGYRCKDCGMNCHKQCKDLVVFECKK	-0.576 ± 0.1
GFPHNFQETTYLKPTFCDNCAGFLWGVIKQGYRCKDCGMNCHKQCKDLVVFCCKK	-0.115 ± 0.081
GFPHNFQETTYLKPTFCDNCAGFLWGVIKQGYRCKDCGMNCHKQCKDLVVFNCKK	-0.174 ± 0.18
GFPHNFQETTYLKPTFCDNCAGFLWGVIKQGYRCKDCGMNCHKQCKDLVVFQCKK	-0.166 ± 0.15
GFPHNFQETTYLKPTFCDNCAGFLWGVIKQGYRCKDCGMNCHKQCKDLVVFVCKK	-0.148 ± 0.055
GFPHNFQETTYLKPWFCDNCAGFLWGVIKQGYRCKDCGMNCHKQCKDLVVFECKK	-0.444 ± 0.12
GFPHNFQETTYLKPTFCDNCAGFLWGVIKQGWRCKDCGMNCHKQCKDLVVFECKK	-0.068 ± 0.085
GFPHNFQETTYLKPTFCDNCWGFLWGVIKQGYRCKDCGMNCHKQCKDLVVFECKK	-0.222 ± 0.13
GFPHNFQETTYLKPTFCDNCAGFLWGVIKQGYRCKDCGMNCHKQCKDLVVFEVKK	-0.103 ± 0.062
GFPHNFQETTYLKPTFCDNCAGFLWGVIKQGYRCKDCGMNCHKQCKDLVVFEHKK	-0.009 ± 0.2
GFPHNYQETTYLKPTFCDNCAGFLWGVIKQGYRCKDCGMNCHKQCKDLVVFECKK	-0.093 ± 0.091

Variant	abundance fitness
GFPHNFQETTYLKPTFCDNCAGFLWGPIKQGYRCKDCGMNCHKQCKDLVVFECKK	-0.297 ± 0.1
GFPHNFQETTYLKPTFCDNCAGFLWGSIKQGYRCKDCGMNCHKQCKDLVVFECKK	-0.423 ± 0.078
GFPHNFQETTYLKPTFCDNCAGFLWGVIKQGYMCKDCGMNCHKQCKDLVVFECKK	0.069 ± 0.083
GFPHNFQETTYLKPTFCDNCAGFLYGVIKQGYRCKDCGMNCHKQCKDLVVFECKK	-0.191 ± 0.09
GFPHNFQETTYLKPTFCDNCAGFLIGVIKQGYRCKDCGMNCHKQCKDLVVFECKK	-0.038 ± 0.14
GFPHNFQELTYLKPTFCDNCAGFLWGVIKQGYRCKDCGMNCHKQCKDLVVFECKK	-0.184 ± 0.076
GFPHNFQEETYLKPTFCDNCAGFLWGVIKQGYRCKDCGMNCHKQCKDLVVFECKK	-0.376 ± 0.12
GFPHNFQEHTYLKPTFCDNCAGFLWGVIKQGYRCKDCGMNCHKQCKDLVVFECKK	-0.021 ± 0.12
GFPHNFQETTYLKPTFCDNCAGFLWGVIKQGYRCKDCQMNCHKQCKDLVVFECKK	-0.281 ± 0.15
GFPHNFQETTYLKPTFCDNCAGFLWGVIKQGYRCKDCWMNCHKQCKDLVVFECKK	-0.109 ± 0.071
GFPHNFQETTYLKPTFCDNCAGFLWGVIKQGYRCKDCPMNCHKQCKDLVVFECKK	-0.081 ± 0.12
GFPHNFQETTYLKPTFCDNCAGFLWGVIKQGYRCKDCGMNCHKQCKDLVVKECKK	-0.155 ± 0.085
GFPHNFQETTYLKPTFCDNCAGFLWGVIKQGYRCKDCGMNCHKQCKDLVVYECKK	0.05 ± 0.086
GFPHNFQETTYLKPTFCDNCAGFLWGVIKQGYRCKDCGMNCHKQRKDLVVFECKK	-0.773 ± 0.083
GFPHNFQETTYLKPTFCDNCAGFLWGVIKQGYRCKDCGLNCHKQCKDLVVFECKK	-0.122 ± 0.04
GFPHNFQETTYLKPTFCDNCAGFLWGVIKQGYRCKDCGCNCHKQCKDLVVFECKK	-0.455 ± 0.054
GFPHNFQETTYLKPTFCDNCAGFLWGVIKQGYRCKDCGQNCHKQCKDLVVFECKK	-0.032 ± 0.067
GFPHNFQETTYFKPTFCDNCAGFLWGVIKQGYRCKDCGMNCHKQCKDLVVFECKK	-0.076 ± 0.09
GFPHNFQETTYDKPTFCDNCAGFLWGVIKQGYRCKDCGMNCHKQCKDLVVFECKK	-0.424 ± 0.17
GFPHNFQETTYVKPTFCDNCAGFLWGVIKQGYRCKDCGMNCHKQCKDLVVFECKK	-0.39 ± 0.097

Variants of: B2
Experiment: as above
Conditions: Homo sapiens

Variant	abundance fitness
RLRTTITPEQLEILYEKYLLDSNPTRKMLDHIAREVGLKKRVVQVWFQNTRAREVK	0.276 ± 0.083
RLRTTITPEQLEILYEKYLLDSNPTRKMLDHIAREVGLKKRVVQVWFQNTRAREYK	0.05 ± 0.45
RLRTTITPEQLEILYEKYLLDSNPTRKMLDHIAREVGLKKRVVQVWFQNTRAREWK	-0.114 ± 0.076
RLRTTITPEQLEILYEKYLLDSNPTRKMLDHIAREVGLKKRVVQVWFQNTRARERG	0.184 ± 0.34
RLRTTITPEQLEILYEKYLLDSNPTRKMLDHIAREVGLKKRVVQVWFQNTRARERS	-0.043 ± 0.14
RLRTTITPEQLEILYEKYLLDSNPTRKMLDHIAREVGLKKRVVQVWFQNTRARERT	0.267 ± 0.15
RLRTTITPEQLEILYEKYLLDSNPTRKMLDHIAREVGLKKRVVQVWFQNTRARERM	-0.023 ± 0.3
RLRTTITPEQLEILYEKYLLDSNPTRKMLDHIAREVGLKKRVVQVWFQNTRARERI	-0.305 ± 0.5
RLRTTITPEQLEILYEKYLLDSNPTRKMLDHIAREVGLKKRVVQVWFQNTRARERR	-0.701 ± 0.26
RLRTTITPEQLEILYEKYLLDSNPTRKMLDHIAREVGLKKRVVQVWFQNTRARERV	-0.282 ± 0.37
RLRTTITPEQLEILYEKYLLDSNPTRKMLDHIAREVGLKKRVVQVWFQNTRARERD	0.085 ± 0.34
RLRTTITPEQLEILYEKYLLDSNPTRKMLDHIAREVGLKKRVVQVWFQNTRARERA	-0.241 ± 0.46
RLRTTITPEQLEILYEKYLLDSNPTRKMLDHIAREVGLKKRVVQVWFQNTRARERE	0.273 ± 0.17
